These results are taken from publication PMC3582507, “A Safeguard Mechanism Regulates Rho GTPases to Coordinate Cytokinesis with the Establishment of Cell Polarity” (PLoS Biology, 2013).

The target in the experiment is T1, 6His-Gps1-1-290 (S. cerevisiae, UniProt Q99299 1-290).
T1 construct: Gps1, budding yeast, ORF YPL158C, amino acids 1-290; also called 6His-GPS1 (amino acids 1-290); source: E. coli BL21 (DE3), purified (Ni-NTA agarose)
T1 sequence (looked up): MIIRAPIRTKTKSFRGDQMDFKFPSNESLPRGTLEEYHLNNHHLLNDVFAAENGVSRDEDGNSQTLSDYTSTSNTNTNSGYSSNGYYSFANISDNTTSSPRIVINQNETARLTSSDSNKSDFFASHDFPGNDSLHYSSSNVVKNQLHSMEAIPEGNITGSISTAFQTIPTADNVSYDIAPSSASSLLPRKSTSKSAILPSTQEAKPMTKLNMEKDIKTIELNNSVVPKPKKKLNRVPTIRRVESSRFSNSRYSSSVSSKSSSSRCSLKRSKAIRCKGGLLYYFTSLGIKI
The experiment in a line: pull-down; 6His-Gps1-1-290 bound to Ni-NTA agarose beads, incubated with GST or GST fusion proteins 1 h at 4°C in 50 mM Tris-HCl pH 7.4, 10% glycerol, 100 mM NaCl, 1 mM EDTA, 1 mM DTT, 0.5% NP-40; SDS-PAGE and Western blotting. Conditions: both partners purified. In general terms: A western blot detects proteins with antibodies after separation by electrophoresis.

B1: GST-Rho1 (natural protein, S. cerevisiae, UniProt P06780 1-209, looked up)
chain: MSQQVGNSIRRKLVIVGDGACGKTCLLIVFSKGQFPEVYVPTVFENYVADVEVDGRRVELALWDTAGQEDYDRLRPLSYPDSNVVLICFSIDLPDSLENVQEKWIAEVLHFCQGVPIILVGCKVDLRNDPQTIEQLRQEGQQPVTSQEGQSVADQIGATGYYECSAKTGYGVREVFEAATRASLMGKSKTNGKAKKNTTEKKKKKCVLL
notes: Rho1, Rho GTPase of budding yeast; source: E. coli BL21 (DE3), purified
B1: the binding result is “binds”.

B2: GST-Rho1-G22A (natural protein, S. cerevisiae, UniProt P06780 1-209, looked up)
chain: MSQQVGNSIRRKLVIVGDGACAKTCLLIVFSKGQFPEVYVPTVFENYVADVEVDGRRVELALWDTAGQEDYDRLRPLSYPDSNVVLICFSIDLPDSLENVQEKWIAEVLHFCQGVPIILVGCKVDLRNDPQTIEQLRQEGQQPVTSQEGQSVADQIGATGYYECSAKTGYGVREVFEAATRASLMGKSKTNGKAKKNTTEKKKKKCVLL
notes: Rho1, Rho GTPase of budding yeast, nucleotide-locked mutant G22A; source: E. coli BL21 (DE3), purified
Consider B2, for which the binding result was “binds”.

B3: GST-Rho1-G19V (natural protein, S. cerevisiae, UniProt P06780 1-209, looked up)
chain: MSQQVGNSIRRKLVIVGDVACGKTCLLIVFSKGQFPEVYVPTVFENYVADVEVDGRRVELALWDTAGQEDYDRLRPLSYPDSNVVLICFSIDLPDSLENVQEKWIAEVLHFCQGVPIILVGCKVDLRNDPQTIEQLRQEGQQPVTSQEGQSVADQIGATGYYECSAKTGYGVREVFEAATRASLMGKSKTNGKAKKNTTEKKKKKCVLL
notes: Rho1, Rho GTPase of budding yeast, nucleotide-locked mutant G19V; source: E. coli BL21 (DE3), purified
As for B3, the binding result was “binds”.

B4: GST-Cdc42 (natural protein)
chain: not shown
notes: Cdc42, Rho GTPase of budding yeast; source: E. coli BL21 (DE3), purified
Consider B4, for which the binding result is “binds”.

B5: GST-Cdc42-D57Y (natural protein)
chain: not shown
notes: Cdc42, Rho GTPase of budding yeast, nucleotide-locked mutant D57Y; source: E. coli BL21 (DE3), purified
On to B5, for which the binding result is reported as “binds”.

B6: GST-Cdc42-Q61L (natural protein)
chain: not shown
notes: Cdc42, Rho GTPase of budding yeast, nucleotide-locked mutant Q61L; source: E. coli BL21 (DE3), purified
Consider B6, for which the binding result is “binds”.
